Test results as given in paper PMC12451656, “HMGB1 B‑Box Domain Associates Promote Protein–Polyelectrolyte Interactions” (The Journal of Physical Chemistry. B, 2025).

Molecular target: the molecule itself
Assay: dynamic light scattering; as-prepared, unfiltered B-box, 30 μM, 25 mM Tris-HCl pH 6.9, 150 mM NaCl, 25 °C, backscattering mode; the retentate of the 30 kDa filter was also measured (Figure S6)

B1: HMGB1 B-box domain (domain or fragment, human)
chain: MARIDPNAPKRPPSAFFLFCSEYRPKIKGEHPGLSIGDVAKKLGEMWNNTAADDKQPYEKKAAKLKEKYEKDIAAYRAKGKPDAAKKGVV
notes: initiator methionine followed by the triplet alanine-arginine-isoleucine (ARI), inserted through the forward primer for better expression; HMGB1 (high mobility group box 1), human, B-box domain, cloned from the human HMGB1 cDNA; Numbers count on: the construct (Cys19 = Cys106 of full-length HMGB1; Trp46); By the reverse primer, the XhoI site adds LE between V176 and the SGS-His8 tag; The DLS …
stoichiometry N: ~8
